What was measured:
HLA-A*02:01 [1] = experiment: IEDB peptide-MHC binding, purified MHC/competitive/fluorescence; ≥ and ≤ were set here for values at or beyond the usual limits of such assays
HLA-A*02:06 = experiment: IEDB peptide-MHC binding, purified MHC/competitive/radioactivity; filed as Kd, often an IC50 or EC50 that approximates it; ≥ and ≤ were set here for values at or beyond the usual limits of such assays
HLA-A*02:02 = experiment: as above
HLA-A*02:03 = experiment: as above
HLA-A*30:01 = experiment: as above
HLA-A*68:01 = experiment: as above; conditions: source organism: SARS coronavirus Tor2
HLA-A*33:01 = experiment: as above; conditions: source organism: SARS coronavirus Tor2
HLA-A*31:01 = experiment: as above; conditions: source organism: SARS coronavirus Tor2
HLA-B*15:01 = experiment: IEDB peptide-MHC binding, purified MHC/direct/fluorescence; filed as Kd, often an IC50 or EC50 that approximates it; ≥ and ≤ were set here for values at or beyond the usual limits of such assays; conditions: source organism: SARS-CoV1
HLA-A*02:01 [2] = experiment: as above
HLA-A*69:01 = experiment: as above
HLA-B*40:01 = experiment: as above; conditions: source organism: Influenza A virus (A/Denver/1957(H1N1))
[3] = source organism: Sudan ebolavirus
[4] = source organism: Vaccinia virus WR
[5] = source organism: Mammarenavirus guanaritoense
[6] = source organism: Dengue virus 2 Jamaica/1409/1983
[7] = source organism: Encephalitozoon cuniculi
[8] = source organism: Entamoeba histolytica HM-1:IMSS

| Sequence | Kd (HLA-A*02:06; [4]) [nM] | Kd (HLA-A*02:02; [4]) [nM] | Kd (HLA-A*02:03; [4]) [nM] | also measured |
| --- | --- | --- | --- | --- |
| NAAGIAWIP | – | – | – | IC50 (HLA-A*02:01 [1]; [3]): 64500 nM |
| TVEFDRDKVV | ≥ 30800 | 16200 | 1600 | – |
| FLTGTFVTA | 2.05 | 4.69 | 0.712 | – |
| YCNYTRFWYI | – | – | – | Kd (HLA-A*02:06; [5]): 81.4 nM; Kd (HLA-A*02:02; [5]): 1050 nM; Kd (HLA-A*02:03; [5]): 4340 nM |
| LTSVDIETA | 311 | 4920 | 11500 | – |
| LTSNCTRTT | ≥ 40400 | ≥ 77800 | ≥ 29600 | – |
| LRFLTIPPTA | – | – | – | Kd (HLA-A*30:01; [6]): 951 nM |
| EVTEIDQLV | – | – | – | IC50 (HLA-A*02:01 [1]; [3]): ≥ 86100 nM |
| DLLLPSTDV | 1060 | 15100 | 3900 | – |
| GNLSPETLV | – | – | – | IC50 (HLA-A*02:01 [1]; source organism: Vaccinia virus): ≥ 106000 nM |
| INRFTMRHK | – | – | – | Kd (HLA-A*30:01; source organism: Dengue virus 2 Peru/IQT2913/1996): 1110 nM |
| LTPFEKEFT | ≥ 77100 | 16800 | ≥ 20900 | – |
| KMQRMLLEK | – | – | – | Kd (HLA-A*68:01): 1380 nM; Kd (HLA-A*33:01): 13700 nM; Kd (HLA-A*31:01): 19 nM; Kd (HLA-B*15:01): ≥ 40300 nM |
| KAKRGTAQI | – | – | – | Kd (HLA-A*30:01; source organism: Dengue virus 1 Singapore/S275/1990): 289 nM |
| YLWFKRHVY | – | – | – | Kd (HLA-A*02:01 [2]; [7]): 4010 nM; Kd (HLA-A*69:01; [7]): 3240 nM |
| KIKQTGINNV | 2550 | 237 | 3.12 | – |
| ITDNGPMPYM | 303 | 828 | 1180 | – |
| RALKAYFTA | 13.7 | 2350 | 204 | Kd (HLA-A*30:01; [4]): 66.1 nM |
| VAEHRFENM | ≥ 47900 | 7130 | 7160 | – |
| AITLVVISVI | 2000 | 406 | 786 | – |
| KSHTLWSNG | – | – | – | Kd (HLA-A*30:01; [6]): 425 nM |

| Sequence | Kd (HLA-A*02:06; [4]) [nM] | Kd (HLA-A*02:02; [4]) [nM] | Kd (HLA-A*02:03; [4]) [nM] | also measured |
| --- | --- | --- | --- | --- |
| DLNAVTTNNL | 7520 | 1830 | 1630 | – |
| ATLNTLITL | 9.59 | 373 | 577 | – |
| LMTLDDLAI | 288 | 51.7 | 75.8 | – |
| QMDGAILVV | – | – | – | Kd (HLA-A*69:01; source organism: Brucella abortus 2308): 3440 nM |
| KQLEWKWGI | – | – | – | Kd (HLA-A*02:01 [2]; [8]): 0.7 nM; Kd (HLA-A*69:01; [8]): 23.2 nM |
| LVMDKNHAI | 103 | 19 | 770 | – |
| SLEATFIDV | 10.3 | 34.9 | 80.4 | – |
| MRRERAAYV | – | – | – | Kd (HLA-A*30:01; [4]): 21.8 nM |
| TLIQYRQQL | 1880 | 128 | 410 | – |
| FTKDGKLDDT | 898 | 145 | 187 | – |
| EVIERINLLV | 300 | 19700 | 3330 | – |
| GRLIWTLDA | – | – | – | IC50 (HLA-A*02:01 [1]; [3]): ≥ 593000 nM |
| LEDSHNGKL | – | – | – | Kd (HLA-B*40:01): 73 nM |
| MISTYPGNT | ≥ 25700 | 5490 | 229 | – |
| KVVRVQRPA | – | – | – | Kd (HLA-A*30:01; source organism: Dengue virus 1 Brazil/97-11/1997): 61.4 nM |
| DTSPTKRCRL | ≥ 44700 | 12200 | ≥ 37100 | – |
| EINPFYQDV | – | – | – | Kd (HLA-A*02:01 [2]; [8]): 19500 nM; Kd (HLA-A*69:01; [8]): 7.6 nM |
| SMYVIPDEL | 2820 | 5.02 | 13.4 | – |
| LMLHNPTSET | 11100 | ≥ 39300 | 4480 | – |
| IICEDAMYYA | 8.78 | 24 | 108 | – |
| SLLRNDVPMA | – | – | – | Kd (HLA-A*30:01; source organism: Dengue virus 3 Martinique/1243/1999): 2480 nM |
